The text below walks through data of patent US20250326839A1, “TREATMENT OF DISEASES RELATED TO COLONY-STIMULATING FACTOR 1 RECEPTOR DYSFUNCTION USING TREM2 AGONISTS” (Vigil Neuroscience, Inc., priority 2020, published 2025).

Assay [1] has as its system human monocyte-derived macrophages (hMDMs). Briefly: Example 1E: CSF1 withdrawal, confluence and Caspase 3/7 apoptosis (Incucyte). Format: cell-based. Particulars: CSF1 withdrawal (0 ng/mL), plates coated with 0.4, 2.0 or 10 μg/mL, 72 hours. Here is the method: PBMCs were isolated from fresh, whole blood from human donors. CD14+ monocytes were isolated using positive magnetic selection (Miltenyi). Cells were plated in UpCell® low-adhesion plates and incubated in culture media with 50 ng/mL CSF1 for 48 hours. After 48 hours, cells were non-enzymatically harvested and plated at 25,000 cells per well in cell culture plates coated with 0.4, 2.0, or 10 μg/mL of either Ab-3 or a matching isotype control, and incubated in a humidified incubator at 37C, 5% CO2 for 72 hours. Caspase-3/7 Green reporter dye was included in the some wells to determine the number of apoptotic events over time. During incubation, cells were monitored every two hours using an Incucyte S3® analyzer (2 fields of view per well, imaged at 10×). Confluence levels were determined using the Incucyte® software, and normalized to CSF1 at 50 ng/mL, which was considered as normal culture conditions. Caspase 3/7 positive counts per field of view were calculated using Incucyte® software. Significance was determined by Ordinary One-Way ANOVA, using multiple comparisons in Graphpad Prism.

Assay [2] has the same test system. As to the kind of experiment: Example 2E: CSF1R inhibition by PLX5622, confluence and morphology (Incucyte). In kind it is cell-based. Particulars: plates coated with 10 μg/mL, plus PLX5622 1 μM, 96 hours. Here is the method:
PBMCs were isolated from fresh, whole blood from human donors. CD14+ monocytes were isolated using positive magnetic selection (Miltenyi). Cells were plated in UpCell® low-adhesion plates and incubated in culture media with 50 ng/mL CSF1 for 48 hours. After 48 hours, cells were non-enzymatically harvested and plated at 25,000 cells per well in cell culture plates coated with 10 μg/mL of either Ab-3 or a matching isotype control. PLX5622 was immediately added to the cultures to 1 μM, and plates were incubated in a humidified incubator at 37 C, 5% CO2 for an additional 96 hours. During incubation, cells were monitored every two hours using an Incucyte S3® analyzer (2 fields of view per well, imaged at 10×). Confluence was measured using built in S3 software, while area and eccentricity (cell shape) were measured using the built in “Cell By Cell” analysis software. Significance was determined by Student's T-test, two-tailed in Graphpad Prism.

B1: Ab-3: murinized version of a human TREM2 agonist antibody, engineered variant of 13E7; HC SEQ ID NO:2779, LC SEQ ID NO:2780 (antibody)
heavy: EVQLVQSGAEVKKPGESLKISCKGSGYSFTSYWIGWVRQMPGKGLEWMGIIYPGDADARYSPSFQGQVTISADKSISTAYLQWSSLKASDTAMYFCARRRQGIFGDALDFWGQGTLVTVSSAKTTPPSVYPLAPGSAAQTNSMVTLGCLVKGYFPEPVTVTWNSGSLSSGVHTFPAVLQSDLYTLSSSVTVPSSTWPSETVTCNVAHPASSTKVDKKIVPRDCGCKPCICTVPEVSSVFIFPPKPKDVLTITLTPKVTCVVVDISKDDPEVQFSWFVDDVEVHTAQTQPREEQFGSTFRSVSELPIMHQDWLNGKEFKCRVNSAAFPAPIEKTISKTKGRPKAPQVYTIPPPKEQMAKDKVSLTCMITDFFPEDITVEWQWNGQPAENYKNTQPIMDTDGSYFVYSKLNVQKSNWEAGNTFTCSVLHEGLHNHHTEKSLSHSPGK
light: EIVMTQSPATLSVSPGERATLSCRASQSVSSNLAWFQQKPGQAPRLLIYGASTRATGIPARFSGSGSGTEFTLTISSLQPEDFAVYYCLQDNNFPPTFGQGTKVDIKRADAAPTVSIFPPSSEQLTSGGASVVCFLNNFYPKDINVKWKIDGSERQNGVLNSWTDQDSKDSTYSMSSTLTLTKDEYERHNSYTCEATHKTSTSPIVKSFNRNEC
modifications: REGION 1..445: note = Murinized Ab-3 HC; REGION 1..214: note = Murinized Ab-3 LC
For the molecule B1, the confluence entry in assay [1] (donors 16 and 26, FIGS. 1 and 2) is given as “increased confluence levels to that of high CSF1 treated cells”; in assay [2] (FIG. 5), “restoration of confluence to levels similar to that of vehicle alone”. Also, the “Caspase 3/7 levels (apoptosis)” value in assay [1] (donors 16 and 26, FIGS. 3 and 4) is reported as “reduced Caspase 3/7 levels to that of high CSF1 treated cells”. The “cells with “high area, high eccentricity” (ramified)” value in assay [2] (FIG. 6) is on record as “restoration of “high area, high eccentricity” to levels higher than that of vehicle alone”.
